Experimental data as given in publication PMC8515915 (Genome Medicine, 2021).

Target: T1, SARS-CoV-2 RBD wildtype, soluble fragment 319-591 with C-terminal 8 × His tag (SARS-CoV-2, UniProt P0DTC2)
T1 construct: source: ExpiCHO-S, transient, purified (His Trap Excel)
Experiment: BLI
Conditions: both partners purified

B1: CB6 (antibody, V domains shown)
VH: EVQLVESGGGLVQPGGSLRLSCAASGFTVSSNYMSWVRQAPGKGLEWVSVIYSGGSTFYADSVKGRFTISRDNSMNTLFLQMNSLRAEDTAVYYCARVLPMYGDYLDYWGQGTLVTVSS
VL: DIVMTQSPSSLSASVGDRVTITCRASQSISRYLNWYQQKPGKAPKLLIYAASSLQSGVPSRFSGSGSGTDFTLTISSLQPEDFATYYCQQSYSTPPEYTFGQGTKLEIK
notes: source: ExpiCHO, heavy and light chain plasmids cotransfected, purified (Protein A)
For B1, which Kd is on record?
The Kd was 0.0107 µM.
